Columns and labels:
[1] = target: T1, TatC with a hexa-histidine tag on the C-terminus, co-produced with TatB (with or without TatA, TatD, TatE) (Escherichia coli, UniProt P69423 1-258); assay: co-purification by Ni(II) affinity chromatography + SEC; TatCHis-containing complexes from digitonin-solubilized membranes of strain DADE producing TatABCHisDE; Ni(II) HiTrap column, then Superose 6 in 20 mM MOPS-HCl pH 7.2, 200 mM NaCl, 0.1% digitonin; peak fraction on SDS-PAGE, Coomassie; conditions: partners not purified
T1 construct: TatC, integral membrane protein of the Escherichia coli Tat system; protomer molecular weight printed as 28.9 kDa; The printed protomer weight of 28.9 kDa fits the whole TatC protein; also called TatCHis; TatCHis of Tat(A)BCHis; source: E. coli strain DADE (MC4100 ΔtatABCDΔtatE), overproduced from pFAT75CH (TatABCHisDE) or pFAT75CHΔA (TatBCHis); digitonin-solubilized membranes; not shown: His6, …
T1 sequence (looked up): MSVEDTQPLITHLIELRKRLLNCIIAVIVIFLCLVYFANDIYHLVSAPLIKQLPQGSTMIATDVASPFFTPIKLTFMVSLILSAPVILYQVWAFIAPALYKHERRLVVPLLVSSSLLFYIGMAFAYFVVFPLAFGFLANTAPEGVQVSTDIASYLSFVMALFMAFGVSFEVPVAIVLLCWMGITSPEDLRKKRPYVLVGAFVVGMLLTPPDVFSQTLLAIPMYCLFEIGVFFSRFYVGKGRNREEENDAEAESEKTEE

[2] = target: the molecule itself; assay: native gel or EMSA; BN-PAGE (5-18% gradient) of digitonin-solubilized whole membranes of strain DADE overproducing TatBHis, TatABCHisDE or TatBCHis; immunoblot with anti-TatB or anti-His tag
[3] = target: the molecule itself; assay: native gel or EMSA; BN-PAGE (4-16% gradient) of TatCHis variants purified in digitonin from the Tat wild-type strain C43(DE3); Coomassie stained

B1: TatB, untagged, co-produced with TatCHis (natural protein, Escherichia coli, UniProt P69425 1-171, looked up)
chain: MFDIGFSELLLVFIIGLVVLGPQRLPVAVKTVAGWIRALRSLATTVQNELTQELKLQEFQDSLKKVEKASLTNLTPELKASMDELRQAAESMKRSYVANDPEKASDEAHTIHNPVVKDNEAAHEGVTPAAAQTQASSPEQKPETTPEPVVKPAADAEPKTAAPSPSSSDKP
notes: TatB, integral membrane protein of the Escherichia coli Tat system; protomer molecular weight printed as 18.4 kDa; source: E. coli strain DADE (MC4100 ΔtatABCDΔtatE), overproduced from pFAT75CH or pFAT75CHΔA; digitonin-solubilized membranes
binding result [1]: binds

B2: TatB with a C-terminal hexa-histidine tag (natural protein, Escherichia coli, UniProt P69425 1-171, looked up)
chain: MFDIGFSELLLVFIIGLVVLGPQRLPVAVKTVAGWIRALRSLATTVQNELTQELKLQEFQDSLKKVEKASLTNLTPELKASMDELRQAAESMKRSYVANDPEKASDEAHTIHNPVVKDNEAAHEGVTPAAAQTQASSPEQKPETTPEPVVKPAADAEPKTAAPSPSSSDKP
notes: TatB, integral membrane protein of the Escherichia coli Tat system; protomer molecular weight printed as 18.4 kDa; Produced in the absence of any other Tat components; detected with anti-TatB serum; also called TatBHis; source: E. coli strain DADE (MC4100 ΔtatABCDΔtatE), overproduced from pFAT586; digitonin-solubilized membranes
stoichiometry N [2]: ≤ 4

B3: TatC with a hexa-histidine tag on the C-terminus, produced alone from pFAT588 (natural protein, Escherichia coli (strain MC4100), UniProt P69423 1-258, looked up)
chain: MVSVEDTQPLITHLIELRKRLLNCIIAVIVIFLCLVYFANDIYHLVSAPLIKQLPQGSTMIATDVASPFFTPIKLTFMVSLILSAPVILYQVWAFIAPALYKHERRLVVPLLVSSSLLFYIGMAFAYFVVFPLAFGFLANTAPEGVQVSTDIASYLSFVMALFMAFGVSFEVPVAIVLLCWMGITSPEDLRKKRPYVLVGAFVVGMLLTPPDVFSQTLLAIPMYCLFEIGVFFSRFYVGKGRNREEENDAEAESEKTEE
notes: TatC, Escherichia coli; tatC gene amplified from chromosomal DNA of strain MC4100, cloned NcoI/BglII into pQE60; protomer molecular weight printed as 28.9 kDa; also called TatCHis; source: E. coli strain C43(DE3) or its ΔtatABC derivative C43ΔTat(DE3), overproduced from pFAT588; digitonin-solubilized membranes; not shown: His6, C-terminal, kept
stoichiometry N [3]: ≤ 7
